# Source: the domain aggregation screens of Martell et al. (2025)
# Experiment: soluble fraction after stress (log2 fold change); higher = more stays soluble; pooled small domains, quantitative proteomics
# Details: stress: 75 degC
# 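Further: 20 min heating vs room temperature control held 20 min.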
row,Sequence,soluble fraction (log2)
1,HMTGRVKWYDATKGFGFVTSDEGGDVFLPKGALPAGVADLKTGQRIEFGVVDSRKGAQALGVK,0.352
2,HMTGSAETRGITLTDEQVTVWAKDGSWANYVYRATDGNWYDGSGRLYYENGGGEWTQAATGEQGS,0.126
3,HMTGSALDATIEKLLDLGSKAGSVTEDEIQIVLKNVDVTDAQLSSIYQFLRDRGVEIVSATEDDD,0.371
4,HMTGVPYLVRVKITDLHIRSGPGTNYASKGFIAPGAYTIVEESTGQGAALWGKLKSGKGWIALGYTEK,-2.13
5,HMTHAISKTYAVTGEQLKNGFTLTHTFANGSTRRVDVYPGSRSGKVIAVRNTTDDTTEWIRIVEG,-0.2
6,HMTHSEYVGRHGIAATSLRPAGAATIDGSRVDVVTSGEYIEKGTPIEVMTVNGSTVRVKAVPQIP,0.203
7,HMTIDANAIEKMVLDLIGEHPNEWGRYRDGDKKVQGFFVGQIMKATSGQADGKIVNQILSQHAEA,-0.0337
8,HMTIELAEGQHFLQISKSGAPMGNVVRDLIIQTLKITNGNQIKAAKILGISRAKLRYRIEQLGINITGKNI,-2.81
9,HMTIERVKIKETPTGWLRVRETPDNNGSEIGRANVGEIYELLGSKGEWYHIVYKGKQGFISTKYAEKVL,-0.999
10,HMTIGEALLNLRKQLGLNQTEMAANVVSTSFYSKVERNIHDIGTKDLLQILNKHQINATYFFENLN,-1.82
11,HMTIHVMEIKSLLPIKILDESQHLVQSFSSKNPTSYNYRLIFSDKSKLENIKKTINENKDVESIEIRYA,-0.885
12,HMTILTSSQRKALISKMIRQGGVESQSHLVKLLAREGVKVTQATASRDLEDLGATRVRDANGEFQYVIP,-1.16
13,HMTINQIDPASGRKVGYWIITGEMKPKEGFSPDNKIEEGIYVNSRKSGKWIKYWPNGNVRSEIIYKNGR,-0.677
14,HMTITPEVIVNHFKNLDLFFTKNGNYYEFKKKGTENILFKYGIYKQKPNIFVKIQRYPISSLSDLERIPI,-1.53
15,HMTIYLSENIKRLRLEKELTQETLSEFLGVTSQSVSNWERGESYPDITMLPEIADFFKVSVDELLGVNRAE,-2.26
16,HMTIYPFNPNYLKDYQAYRVGLSLKEIDALLDFRSSGQWINSAEDFQRITGVSDSVLEQLIPYFKFS,-2.98
17,HMTKASYKITTPSGVNVREGAGKRYAVRKAYPKGKTVTVTQTKEVNGNLWGKTSDGWFAIKYQGAVYASA,-1.39
18,HMTKDEFLTTLRTLIQDMPPEDRRDVMNYYTEYFEDAGPEREQEVLRQLGSPEQVAREVLGG,-0.0428
19,HMTKDVIEIVDGNKFVFHKTIATDSVSSVINKYHISEADFRTWNELTGDMKVGEEYIVQLSLH,-0.87
20,HMTKKFQIQTLDKLNVRKVADWNASAVTTVKKGQILDVVAEVSPKNGSTKMYKLESGLYITASEKYVKKQG,-1.65
21,HMTKLPLLVELSRIIPTDTWVKKIKFSLGSVEFVGISKSASRLLPIVENSSYFHDTKFIGTIVT,-0.547
22,HMTKNIIVTTSVKTSDELVEVAKNHALNLELDFNYRNKKTIKELLSSFDGLVVIYKNKISYFEDNSELF,0.335
23,HMTKQDYLTALQQELNKNAVADAEDIVSEYEQHFQFKLADGFTEEEIAAKLGAPAQIALQFAG,0.826
24,HMTKQRSIILDLLKANQDRHLTAEEMLELLNQNHTPVSKATLYRYLDMLVSQNAVRKFIIDDQPSAGYQYL,-2
25,HMTKSTSMDLGGFMIVEGSETVRLGGQILQKDVDYTIDYFSGKINFISEEALNPGAEISVSYEENQ,-0.225
26,HMTKTEFLEALRRALNGNMAAASVEDNLKFYENYFYSEEAKGRSEAAVLSELGDPRILARTLIDAAER,0.154

row,Sequence,soluble fraction (log2)
1,HMTKTEFLNLLEQRLFVLNDNERADLLSEYKQHIEMKIQSGLSEEEAIADFGDPEELIKELLEAY,-0.956
2,HMTKTFDSPEDADNDVLAKTLFQIFGVQSVYLKENFVTITKSNSVGWHTLMEKTGHTLEEHLKF,0.0905
3,HMTKTKFLSKDMILSAMSRTKSNRAAARYLSVSFVHYKKYAREYKDETSGVSLWEKHKNQSGTGIPK,-2.11
4,HMTKTSQEDEDIMRHLDELHTRWPFLGQRKLIEELKDQGIQIGRKRLRRLMKVMGIEAIAPK,-2.12
5,HMTKVMVPNVVGMSRGEAEEALRGVKLQVDLKREVSDDPEVKPEEVLRQTPDAQTSVPQGSVVTLYVADKP,0.0285
6,HMTKYEKKIFEIVNASRDHLTAEQVLAALREEYPAVSQATVYNNLKKLTSDGLLRKLTLADSPDRYD,-0.202
7,HMTLAAATESREYLADLARRLDAADHGDKTRIKAEAAGLLGWSMATLHARLARDVGWTSGRK,-0.241
8,HMTLDEFTDLMNLFKTGHIEQKPVILYGYNYWTSLKSWFEFNNMKFPEMYIDGIINTVDEFKILYNKIF,-1.38
9,HMTLGPKQMGEAIIKNLKEKTGKSLEEWSQRILIHELTDKKEIIDFLKNDNGLGHFQALKIFEHLNGK,-0.281
10,HMTLGQHIQALRKEAGYSQEALGEALGVTRQSISKWESDQAIPEVDKLVTLSRLFQVPVGVLLQVEQP,-0.348
11,HMTLGSVRTVRQVLDDGRLLVADSGGNVTLVRRAGTLAKENVNTGDRVSVDSSVRFALTLIPV,-0.931
12,HMTLPEKSKRLFSQDDFWDQIFYRIGEGQSLREVSKYYKIPYTTIHDRIHSDEGIKLKYLEALTS,-0.882
13,HMTLPQEPTVLPRPLRVGDTVHIRTLDKDAEVLALPDARGMVAVRAGIINTKVKLTDLTLVEEK,-0.0272
14,HMTLRDRDQALEELWGQLADVPMDSETERLLEPFMGWGVGVSRDEIWHWFDRRHSKGIGHLLYS,-1.42
15,HMTLSENEKIIVDTIMKYQPLHIDVLNQQVKVDFYTLLGLLTKLEMEGIVLKNPGNIYKINTL,-0.378
16,HMTLTPEQQAARRSEIVDIALRLIAENGFQKTSMREIADLAKMGKSSLYDFFKTKDEIAVYAMEKK,-0.714
17,HMTMEFGEFLAKLRKERGYYQKEVAAYLNVTVATISNYEKNVHAPDLDTLVKLADFYDVSTDYLLQRT,-2.7
18,HMTMGAAEAQALKDEALELYRTGGTQEDVVRAIEMYEQAAEAGNAQAASDLAYLKANGVYETAMNN,0.263
19,HMTMQQGTISRLNHSRGFGFLTTPDGEDLFFHRTNVHETPFARLQVGDRVTYDVQVTPRGTRADKVQLNM,-0.261
20,HMTMRFVVADGQNFGSIAQSKALEAVKKGNTEFNYKDVDYTVDIQSDDFYVVYQGRDIMGYASR,-1.11
21,HMTMTIEITVNGKTKTLVAELSLADLLRDLGMTKGRIAVELNGHIVPRSQFSSKTISNLDSIEIVQ,-3.43
22,HMTNADRYIGQEATVTEKISNELSTGAVRIGGLVWTARTVDNSEAEEGERVTVEAIEGAKLLVKRR,0.132
23,HMTNEPRLTNMGFNKMLIENYKMILEYQDFFIRISTQIGIININGFDLKLGEMTADEVLVTGKIESIDL,0.429
24,HMTNIDRLIGQTAIVKETINNKKEQGVVRINGMDWTARTEEIDEVILKGKPVEILDIQGIKLIVRKK,-0.545
25,HMTNIELYQRLLNLGFTPAQAKILLVQYDETRLTDNLNYVDFKKQQGNIENLPAYTTTIIKKDVRL,-1.14
26,HMTNIQFINLKMTDNHPWIHQYIKDIILPPQTRIVMIKRNDIKTIPKGERRIEKDDELILSAFESQT,-2.06

row,Sequence,soluble fraction (log2)
1,HMTNKKIILEIFQNSDKPLIVEEISKKMFEKTGKKMILSTIYRNLKNMEDVGILKKIYNEDGSYMYIF,-1.02
2,HMTNKQEYAYQWLKSSIIENKIKPSTLLVERHLSEMLHISRTPVRTALMRLADEGFVVISPGRGMVVA,-2.32
3,HMTNQEFNAAFKPFLDYFPTTEMTKEKINIYYLALSDLSKEQLGSAFISMVKNRVYKNFPQVAEIRQYATN,-0.803
4,HMTNTDYPGKVVPVDPDGKTLKPDGDASYNDKPGTKVKTPTVPGYTAEVPNVEVPVGGGDIKVTYHKKPV,-0.0351
5,HMTNVYSLIGKRGIVVEDIDWQKGTGQVKIDGELWSVKTNEQINISKGTEVEVENIEGVKVFVKPI,-0.121
6,HMTNYGTVRPGARGQAVTALQQALIRHGYKLTADGIYGRATRQAVRAFQQKHKLKVDGIVGSKTWALLLAD,-2.13
7,HMTPDGNATVWSANGYGVRLRTGPGKGYAIIGVYSVGTTVKVLERGPAGGWDHIQVGSRVGYMMNEFLHYY,-3.16
8,HMTPDLSEFKERLRQILPGEPIEVRTANDGIVLSGTVTSIAALDRALDLAERYAPDKVSNLLSVG,0.149
9,HMTPELTAEEREVLSLLGDEPRTLAELIAASGRDYAALSVLLMGLELSQAVRQLPGNRYERF,-0.84
10,HMTPGPFLVYITGAVERPNVLVTLDYGSRVIDALNAAGGSRIDANLDLVNLAQRLVDGDQIHVPTLR,-1.17
11,HMTPGPYETLKPAPLGSYIEPKIGFATAIEIARKEAVQLGIKTEAGGIWYGGDFPFYNVSFFDPDD,-0.842
12,HMTPKVTVPDVTGQTFSSAKQILESLGFTVKQQGSTDETDQVIDQNPTSGEADKGATITLTTKSS,0.0908
13,HMTPPAQQPHEGLPTDETATDAKTLVQKSRWWLEEEQRQREAGNTAYAERIRLALIQLLYRAERA,-0.713
14,HMTPQNAAAVLRYLSSGAIKGVGPSTAQRIVEKFGAESLDIIQNKPEELATIRGISLSKALAVSEEYNKQY,-0.289
15,HMTPTFSNQDLIKAGLAGSPVAKRRRERLGELLGIGYGNAKQLLKRLDLFAIDRPTFERAVAQLDQEGK,-0.465
16,HMTPVSQIATKDIEEKIDSLSDEYKDPFILHFKGFKYKEIADQLDIPIGTVKSRIFIARKKLIDLLPDY,0.0524
17,HMTQEHDESVNLGKRLLDQALSRFGTSYRQLKKSEIKRILQSSGASTFKYILHQIGLGNRVPLAIANLIV,-0.0539
18,HMTQEMPAEVKKKADAFNNAMDEENYTEAKAILAELEQNTAPSYPLLLQMQTRYAFETASWE,0.00338
19,HMTQFSASSERAGAGGAYRTTLRAMEQNGDLLQISILLPDAVTAKHAATVWPERAQAIYTAILSELLK,-1.71
20,HMTQGIDQISFSQFLDKVQSGEVTDVRISGSDITGTLKTGGKFETVAGNYEKIWDLLRENKVVFVVDSP,0.332
21,HMTQNSAITNRVLYMQRTLRQYGYAVPESGNFDRTTRAHAAEFLYNATGLPVRENQSVQEFYRAFQRVQG,-1.77
22,HMTQRRLQSELDSIPGVGAGTRTKLLRTLGSVDAVLRASEAELLAAGANRRQVASIQAHAAAVER,-0.0213
23,HMTQSQSLQSQFEQLEKAYQDNLHLLSPKQKLIIQEAGKIIQQLPQQAQIQAKVNLYQSLSAEISKESQQ,0.1
24,HMTQTDINQIETLVHEGNKLAAVKLLMDTAHIGLKEAKDIIDNFFLGKQTDLQAAVAQVQTR,0.902
25,HMTRHIQVNDSIASTPIEDVYFSTRTYNALLNNGISVIGDLSKYTHDDLYASFQGLGRAGVLEIEAYLRQD,-1.43
